Biological target: T1, recombinant human Cyclophilin A (CypA) (human, UniProt P62937 1-165)
T1 construct: also called human peptidyl prolyl isomerase CypA; source: E. coli BL21(DE3), pET11c, purified (DEAE-Sepharose flow-through, MonoS cation exchange)
Assay: SPR
Details: both partners purified

T1 sequence (P62937 whole entry): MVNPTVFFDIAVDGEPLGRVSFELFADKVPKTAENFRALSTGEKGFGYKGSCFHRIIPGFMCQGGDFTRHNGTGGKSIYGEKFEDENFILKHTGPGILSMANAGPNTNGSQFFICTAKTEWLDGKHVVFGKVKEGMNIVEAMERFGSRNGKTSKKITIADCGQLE

| Binder | Kd [µM] | ka1 (two-state model, association) [M⁻¹ s⁻¹] | ka2 (two-state model, forward rate) [s⁻¹] | kd1 (two-state model, dissociation) [s⁻¹] | kd2 (two-state model, backward rate) [s⁻¹] |
| --- | --- | --- | --- | --- | --- |
| AVRHFPRIWLH (source: synthetic peptide) [synthetic HIV-1 Vpr peptide sVpr^30-40] | 167 | 2470 | 0.00145 | 0.527 | 0.0053 |
| HFPRI (source: synthetic peptide) [synthetic HIV-1 Vpr peptide sVpr^33-37] | 3570 | 120 | 0.00138 | 0.66 | 0.0025 |
| ELKSEAVRHFPRIWLH (source: synthetic peptide) [synthetic HIV-1 Vpr peptide sVpr^25-40] | 404 | 2000 | 0.0028 | 0.942 | 0.0173 |
| RHFPRIW (source: synthetic peptide) [synthetic HIV-1 Vpr peptide sVpr^32-38] | 487 | 924 | 0.0011 | 0.67 | 0.0023 |
| ELLEELKSEAVRHFPRIWLH (source: synthetic peptide) [synthetic HIV-1 Vpr peptide sVpr^21-40] | 201 | 466 | 0.0084 | 0.164 | 0.011 |
